Here are results for four molecules from US20070020717A1 (ARBOR VITA, published 2007).

In experiment [1] the target is T1, Peptide 1956 (N-terminally biotinylated Tat-COX-2 peptide).
T1 construct: also called PL of COX-2
Put plainly: ELISA titration of the biotinylated peptide on captured GST-PDZ. On the technique in general: ELISA stands for enzyme-linked immunosorbent assay.

The target in experiment [2] is T1, Peptide 1956 (N-terminally biotinylated …). Put plainly: ELISA (modified G assay): GST-PDZ captured by anti-GST antibody, biotinylated peptide, HRP-streptavidin.

B1: GST-PDZ fusion protein, PDZ domain of SHANK1 (GID 7025450) (other)
chain: ILKEKTVLLQKKDSEGFGFVLRGAKAQTPIEEFTPTPAFPALQYLESVDEGGVAWRAGLRMGDFLIEVNGQNVVKVGHRQVVNMIRQGGNTLMVKVVMVTRHPDMDEAVQNSS
notes: also called SHANK1 PDZ domain
In the case of B1, in experiment [1], the binding result is “binds”.

B2: GST-PDZ fusion protein, PDZ domain of MAST2 (Accession no. AB047005) (other)
chain: ISALGSMRPPIIIHRAGKKYGFTLRAIRVYMGDSDVYTVHHMVWHVEDGGPASEAGLRQGDLITHVNGEPVHGLVHTEVVELILKSGNKVAISTTPLENSS
notes: also called MAST2 PDZ domain
For the molecule B2, the binding result in experiment [2] is “binds”.

B3: GST-PDZ fusion protein, PDZ domain of SHANK2 (GID 6049185) (other)
chain: ILEEKTVVLQKKDNEGFGFVLRGAKADTPIEEFTPTPAFPALQYLESVDEGGVAWQAGLRTGDFLIEVNNENVVKVGHRQVVNMIRQGGNHLVLKVVTVTRNLDPDDNSS
notes: also called SHANK2 PDZ domain
Turning to B3, the binding result in experiment [1] is given as “binds”.

B4: GST-PDZ fusion protein, PDZ domain of SHANK3 (XM_037493 GID: 51476100) (other)
chain: SDYVIDDKVAVLQKRDHEGFGFVLRGAKAETPIEEFTPTPAFPALQYLESVDVEGVAWRAGLRTGDFLIEVNGVNVVKVGHKQVVALIRQGGNRLVMKVVSVTRKPEEDG
notes: also called SHANK3 PDZ domain
On to B4, for which, in experiment [1], the binding result is recorded as “binds”.
